We go through three substances from US20200354457A1.

Assay [1] addresses Lag3 on cynomolgus PBMC/T cells (cynomolgus). The assay is described as follows: flow cytometry, non-activated cynomolgus PBMC, 10 µg/ml. On the technique in general: In flow cytometry, cells or beads pass a laser one at a time.
The target is the same in assay [2]. Nature of the assay: flow cytometry, CD3/CD28-activated cynomolgus PBMC, 10 µg/ml.
Assay [3] deals with cynomolgus LAG3 on transiently transfected HEK293F cells (cynomolgus). Nature of the assay: flow cytometry on HEK293F cells transfected with cyno LAG3, 10 µg/ml.
The target of assay [4] is Lag3 on Lag3+ NFAT Jurkat effector cells (Promega #CS194801). Nature of the assay: cell-based or functional assay.

Chain of control antibody MDX25F7 (VH): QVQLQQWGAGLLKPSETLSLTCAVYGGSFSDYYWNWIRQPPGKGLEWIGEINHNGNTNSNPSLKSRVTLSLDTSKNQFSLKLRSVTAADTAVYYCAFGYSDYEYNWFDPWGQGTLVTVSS
Chain of control antibody MDX25F7 (VL): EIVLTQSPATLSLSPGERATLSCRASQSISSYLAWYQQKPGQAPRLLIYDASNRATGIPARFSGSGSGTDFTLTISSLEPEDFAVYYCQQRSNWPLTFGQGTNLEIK

Take BMS-986016 (antibody): the Percentage of Lag3 positive cells was 10.1% in assay [1] and 18.6% in assay [2].
For DP47 (human isotype control) (antibody), in that order: 2.5% and 9.19%.
For the substance control antibody MDX25F7, in assay [3], the LAG3 positive cells (%) came out at 48.2% and the Signal intensity (Geo Mean) was 1560 Geo Mean. In assay [4], this substance yielded an EC50 of restoration of the NFAT luciferase signal (NFAT Lag3 reporter assay: Lag3+ Jurkat, Raji cells, SED) of 1.29 µg/mL and an IC50 for near-complete reduction of luciferase activity (modified NFAT Lag3 reporter assay, Lag3+ Jurkat cells alone) of 0.033 µg/mL. This substance also came in with a Percentage of Lag3 positive cells in assay [1] of 11.3%. The same substance gave a Percentage of Lag3 positive cells in assay [2] of 22.1%.
